From patent publication US20210324058A1 (BRIGHAM AND WOMEN S HOSPITAL, published 2021)

Key:
[1] = biological target: T1, recombinant human NEDD9 (neural precursor cell expressed, developmentally down-regulated 9), OriGene TP307200 (human, UniProt Q14511 1-834); assay: microscale thermophoresis, labelled NEDD9 20 nM, P-Selectin titrated
T1 construct: Bought recombinant protein; In microscale thermophoresis it was labelled with the dye NT-647-NHS; also called recombinant NEDD9; purified human NEDD9
T1 sequence (looked up): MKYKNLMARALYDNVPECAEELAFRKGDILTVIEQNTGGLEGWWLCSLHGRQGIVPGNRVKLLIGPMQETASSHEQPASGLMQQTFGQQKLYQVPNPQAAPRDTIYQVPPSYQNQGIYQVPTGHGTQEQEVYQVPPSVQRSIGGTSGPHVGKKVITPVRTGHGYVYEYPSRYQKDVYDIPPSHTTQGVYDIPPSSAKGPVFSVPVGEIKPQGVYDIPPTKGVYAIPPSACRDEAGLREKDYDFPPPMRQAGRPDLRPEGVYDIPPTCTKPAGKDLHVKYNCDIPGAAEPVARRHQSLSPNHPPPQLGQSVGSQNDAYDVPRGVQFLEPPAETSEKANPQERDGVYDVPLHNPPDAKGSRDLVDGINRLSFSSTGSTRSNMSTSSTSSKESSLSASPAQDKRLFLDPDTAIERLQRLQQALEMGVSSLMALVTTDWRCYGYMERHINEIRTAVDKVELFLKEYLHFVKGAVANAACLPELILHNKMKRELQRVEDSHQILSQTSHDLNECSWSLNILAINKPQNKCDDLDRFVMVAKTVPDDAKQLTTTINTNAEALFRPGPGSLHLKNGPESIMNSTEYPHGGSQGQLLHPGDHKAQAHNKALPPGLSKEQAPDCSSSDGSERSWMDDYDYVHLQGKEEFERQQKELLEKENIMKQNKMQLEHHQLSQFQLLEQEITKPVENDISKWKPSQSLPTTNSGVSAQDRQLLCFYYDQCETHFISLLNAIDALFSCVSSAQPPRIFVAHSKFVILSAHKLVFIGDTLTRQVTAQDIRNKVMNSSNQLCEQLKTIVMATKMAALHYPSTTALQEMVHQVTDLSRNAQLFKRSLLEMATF
Description: (§1) FIGS. 4A-E. P-Selectin binds the NEDD9 substrate domain. (A) HPAEC plasma membrane fractions were incubated with recombinant P-Selectin (0.5-1.0 μg), and liquid chromatography-mass spectrometry (LC-MS) was performed on samples following anti-P-Selectin immunoprecipitation. The MS2 spectra for each of the two detected NEDD9 peptide sequences, both within the substrate domain, are shown: K.[…].D (AA: 91-102; SEQ ID NO:9) (m z 677.36735 at retention time […]) (N9-P1) and K.[…].G (AA: 191-211; SEQ ID NO:10) (m/z 808.77731 at retention time […]) (N9-P2) (N=2 replicates for N=2 iterations). Underlining indicates a YxxP sequence. (B) HPAEC plasma membrane fractions were incubated with exogenous P-Selectin and co-immunoprecipitation for P-Selectin and NEDD9 was performed. PM, plasma membrane; UN, untreated. Varying concentrations of P-Selectin (ligand) (2 μM-0.5 nM) were co-incubated with NEDD9 (receptor) (20 nM) and microscale thermophoresis was performed to assess macromolecular interactions between these proteins. […]
(§2) Microscale Thermophoresis. […] In preliminary studies, we determined that Tris buffer containing 10% glycerol, 1% BSA, 0.05% Tween-20 and 5 mM DDT was an optimal buffer to minimize sample aggregation and adsorption in the capillary tube.³⁹ For experiments, NEDD9 (20 nM) was incubated with decreasing concentrations of P-Selectin (2 μM-0.5 nM) and MST scan was performed.

[2] = biological target: T1, recombinant human NEDD9 (neural …); assay: microscale thermophoresis; dye-labelled NEDD9 20 nM, P-Selectin titrated 2 µM-0.5 nM, N=2
Description: as §1, §2

[3] = biological target: T2, endogenous human NEDD9 of human pulmonary artery endothelial cells (lysates and plasma membrane fractions) (human, UniProt Q14511 1-834, limits assumed); assay: co-immunoprecipitation from HPAEC plasma membrane fractions incubated with recombinant P-Selectin for 1 hr
T2 construct: Endogenous protein in cell material; also called NEDD9 in HPAECs; NEDD9 p55 fragment
T2 sequence (looked up): T1 sequence (looked up)
Description: Magnetic beads (Bio-Rad SureBeads) were resuspended in 100 μl solution (1 mg at 10 mg/mL), magnetized, and serially washed with 1 mL PBS+0.1% Tween 20 (PBS-T). Primary antibody (10 μg) (Table 2) was added to the resuspended beads in a final volume of 200 μl and rotated at room temperature for 10 min. The beads were then magnetized and serially washed with 1 mL PBS-T before incubation with the antigen-containing HPAEC plasma membrane lysate (250-500 μl) plus recombinant P-Selectin (R&D Systems) (0.5-1.0 μg) for 1 hr at room temperature. In the cell-free immunoprecipitation experiment, the antibody-labeled beads were incubated with recombinant NEDD9 (Origene)³⁹ (5 ng) and recombinant P-Selectin (5 ng) in the presence of IgG₁ control, msAb-N9-P1 (10-20 uM), or msAb-N9-P2 (10-20 μM) for 1 hr at room temperature. […]
Next, LC-MS was performed on in-gel trypsin-digested lysates, and identified only two NEDD9 peptide sequences, both within the substrate domain: K.[…].D (AA: 91-102; SEQ ID NO:9) (N9-P1) and K.[…].G (AA: 191-211; SEQ ID NO:10) (N9-P2) (N=2 replicates for N=2 iterations) (FIG. 4A). […] Plasma membrane fractions from HPAECs were incubated with V-control or exogenous (recombinant) P-Selectin for 1 hr, and P-Selectin-NEDD9 complex formation was assessed by co-immunoprecipitation.

EC50 (read off the curve) [1]: ~60 nM | Kd [2]: 13.9 nM | fold increase of NEDD9:P-Selectin complex formation against V-control [3]: 3 fold
B1: recombinant P-Selectin/CD62P, R&D Systems ADP3-200 (other, human, UniProt P16109 42-771, looked up)
chain: WTYHYSTKAYSWNISRKYCQNRYTDLVAIQNKNEIDYLNKVLPYYSSYYWIGIRKNNKTWTWVGTKKALTNEAENWADNEPNNKRNNEDCVEIYIKSPSAPGKWNDEHCLKKKHALCYTASCQDMSCSKQGECLETIGNYTCSCYPGFYGPECEYVRECGELELPQHVLMNCSHPLGNFSFNSQCSFHCTDGYQVNGPSKLECLASGIWTNKPPQCLAAQCPPLKIPERGNMTCLHSAKAFQHQSSCSFSCEEGFALVGPEVVQCTASGVWTAPAPVCKAVQCQHLEAPSEGTMDCVHPLTAFAYGSSCKFECQPGYRVRGLDMLRCIDSGHWSAPLPTCEAISCEPLESPVHGSMDCSPSLRAFQYDTNCSFRCAEGFMLRGADIVRCDNLGQWTAPAPVCQALQCQDLPVPNEARVNCSHPFGAFRYQSVCSFTCNEGLLLVGASVLQCLATGNWNSVPPECQAIPCTPLLSPQNGTMTCVQPLGSSSYKSTCQFICDEGYSLSGPERLDCTRSGRWTDSPPMCEAIKCPELFAPEQGSLDCSDTRGEFNVGSTCHFSCDNGFKLEGPNNVECTTSGRWSATPPTCKGIASLPTPGVQCPALTTPGQGTMYCRHHPGTFGFNTTCYFGCNAGFTLIGDSTLSCRPSGQWTAVTPACRAVKCSELHVNKPIAMNCSNLWGNFSYGSICSFHCLEGQLLNGSAQTACQENGHWSTTVPTCQAGPLTIQEA
notes: Bought recombinant protein; Species is read from 'Purified human NEDD9 and P-Selectin/CD62P'; also called exogenous P-Selectin
